Measured values as given in the nanobody polyreactivity screen of Harvey et al. (2022).

assay: yeast display, Sf9 membrane polyspecificity reagent, FACS + sequencing; frameworks hold sequencing errors
Outline: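 In a synthetic yeast display library (Saccharomyces cerevisiae BJ5465), nanobody expression was induced with galactose for 36–48 hours. FACS gates were set low and high (top ~1%) using anti-HA fluorescence for expression and streptavidin fluorescence for binding of the Sf9 membrane reagent. Each polyreactivity label is drawn from the gate of origin.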

Sequence | polyreactivity (PSR sort gate)
QVQLVESGGGLVQAGGSLRLSCAASGRTFRFYAMGWYRQAPGKERELVAAISYSGGSTYYADSVKGRFTISRDNAKNTVYLQMNSLKPEDTAVYYCNARYRLGSPVGYNYYTGYDYWGQGTQVTVSS | high polyreactivity
QVQLVESGGSLVQAGGSLRLSCAASGSTFTKYVMGWYRQAPGKERELVAAISQSGTRTYYADSVKGRFTISRDNAKNTVYLQMNSLKPEDTAVYYCNKPVRNGSYHNRYNYWGQGTQVTVSS | high polyreactivity
QVQRVESGGGLVQAGGSLRLSCAASGITFRGYAMGWYRQAPGKERELVAAINSRGGSTYYADSVKGRFTISRDNAKNTVYLQMNSLKPEDTAVYYCATRSFGRMDYWGQGTQVTVSS | high polyreactivity
QVQLVESGGGLVQAGGSLRLSCDASGFIFDHNAMGWYRQAPGKERELVAAISWGYGSTYYADSVKGRFTISRDNAKNTVYLQMNRLKTEDTAVYYCAARAVRYYAWVRGGCTSFDYWGQGTQVTVSS | high polyreactivity
QVQLVESGGGLVQAGGSLRLSCAASGSTFKSYAMGWYRQAPGKERELVAAINWSGGSTYYADSVKGRFTISRDNAKNTVYLQMTSLKPEDTAVYYCNAVYAVRSYDSWGQGTQVTVSS | high polyreactivity
QVQLVESGGGLVQAGGSLRLSCAASGRIFRSNAMGWYRQAPGKERELVAAISSNGGSTYYADSVKGRFTISRDNAKNPVYLQMNSLKPEDTAVYYCAARVYYPVRYGYWGQGTQVTVSS | high polyreactivity
QVQIVESGGGLVQEGGSLRISCAASGFTFTANAMGWYRQAPGKERELVAAITRNGGRTYYADSVKGRFTISRDNAKNTVYFQMNSLKPEDTAVYYCAKPTSQRIHDDYDYWGQGTQVTVSS | high polyreactivity
QVQLVESGGGLVQAGGSLRLSCAASGITFIYYAMGWYRQAPGKERELVAAISKSGGRTYYADSVKGRFTISRDNAKNTVYLQMNSLKPEDTAVYYCNKLVGDDTALYDYWGQGTQVTVSS | high polyreactivity
QVQLEESGGGLVQAGGSLRLSCAASGSIFRYNAMGWYRQAPGKERELVAAITSGDSTYYADSVKGRFTISRDNAKNTVYLQMNSLKPEDTAVYYCAADLRYIYWSYYYWGQGTQVTVSS | low polyreactivity
QVQLVESGGGLVQAGGSLRLSCAASGSTFKWYAMGWYRPAPGKEREFVAAITKTGGRTNYADSVKGRFTISRDNAKNTVYLQMNSLKPEDTAVYYCAAGYYAGIYYYWGQGTQVTVSS | high polyreactivity
QVQLVESGGGLVQAGGSLRLSCADSGRNYIGNAMGWYIHAPGKEPELVAAISSSGGNTYYADSVKGRFTISRDNAKNTVYLQMTSLNPEDNAVYYCAVEVRTLVTYGRSEYYWGQGTKVTVSS | high polyreactivity
QVQLVESGGGLVQAGGSLRLSCAASGFTFNRYAMGWYRQAPGKERELVARITRGGSTKYADSVKGRFTISRDNAKNTVYLEMNSLKPEDTAVYYCAADYGGFLVYDYWGQGTQVTVSS | high polyreactivity
QVQLVESGGGLVQAGGSLRLSCAASGSIFTGNTMGWYRQAPGNERELVAAMSRRGGRTYYADSVKGRFTISRDNAKNTVYLQMNSLKPEDPAVYYCAADGWYWTYIVEYWGQGTQVTVSS | high polyreactivity
QVQLVETGGGLVQAGGSLRLSCAASGITFRGYAMGWYRQAPGKERELVAAISGSGGTTYYADSVKGRFTISRDNAKNTVYLQMNSLKPEDTAVYYCNAKAVRGRYVWYDYWGQGTQVTVSS | high polyreactivity
QVQLVESGGGLVQAGGSLRLSCAASGFIFYYYAMGWYRQAPGKEREFVAGISRSGGSTYYADSVKGRFTISRDNAKNTVYLQMNSLKPEDTAVYYCGEFWTYWGYGQYDYWGQGTQVTVSS | low polyreactivity
QVQLVESGGGLVQAGGSLRLSCAASGGTFQSNGMGWYIQAPGKERELVATITGSGGDTSYAGSVKGRFTISRDNAKNTVYLQMNSLKPEDTAVYYCAAADADRKYDYWGQGTQVTVSS | low polyreactivity
QVQLVESGGGLVQAGGSLRLSCAASGSTFHDKAMGWYRQAPGKERELVAAITKTAGSTYYADSVKGRFTISRDNAKNTVYLQMNSMKPEDTAVYYCNAKTYHSRRKVLRFDYWGQGTQVTVSS | low polyreactivity
QDQLVESGGGLVQAGGSLRLSCAASARIFPHYPMGWYRQAPGKERELVATITSGGRTNYADSVKGRFTISRDNAKNTVYLQMNSLKPEDTAVYYCAVDTWGSSWYDLFRETSDYWGHGTQVTVSS | low polyreactivity
QDQLVESGRGLVQAGGNLRLSCAPSRSIFTTYAMGWYRQARGKERHFVATITSSDSTNYADSVKGRFTISRDNAKNTVYLQMNSLNPEETAVYYCNAGGDRTVSVAWYSADDFWGQGTQVTVSS | low polyreactivity
QVHLVESGGGLVQAGGSLRLSCAASGSIFYYNTMGWYRQAPGKERELVAAIRFDDGSTYYADSVKGRFTISRDNAKNTVYLQMNSLKPEDTAVYYCAADWIVVSEFGLDYHMDYWGQGTQVTVSS | low polyreactivity
QVQLVESGGGLVQAGGSLRLSCAASGSTFWLNAMGWYRQAPGKERELVADISRSGGSTYYADSVKGRFTISRDNAKNTVYLQMNSLKPEDTAVYYCAADSWPDQFTVYPGGDYWGQGTQVTVSS | low polyreactivity
QHQLVDSGVCLVQAGRSLRLSCDASGYTFYIYAMGWYTQAPRKERELVATISSSGGGTYYADSVKGRFTISRDNAKNTVYLQMNSLNPEDTAVYYCNADGWYWQAQGYDYWGQGTQVTVSS | low polyreactivity

Sequence | polyreactivity (PSR sort gate)
QVQLVESGGGLVQAGGSLRLSCAHSGSSFYRYSMRWYIQAPGKERELDAAISTSGGRTYYADSVKGRFSISRDNAKNTVYLQMNSLKPEDTAVYYCAADQYRYYRSTYDYWGQGTQVTVSS | high polyreactivity
QVQLVESGGGLVQAGGSLRLSCAASGYTFYYNAMGWYRQATGKERELVAAISWSTSGTYYADSVKGRFTISRDNAKNTVYLQMYSLKPEYTAVYYCAAPSSGTITYDYWGQGTQVTVSS | low polyreactivity
QVQLVESGGGLVQGGGSLRLSCAASGRTFRYYAMGWYRQAPGKERELVAAITRSGGSTYYADSVKGRFTISRDNAKYTVYLQMNSLKPEDTAVYYCAASRFTSYGIDYDYWAQGTQVTVSS | high polyreactivity
QVQLVESGSGLVQAGGSLRLSCAASGSIFVNYGMGRYRQAPGKERELVAAINRNGGRTYYADSVKGRFTISRDNAKNTVYLQMNSLKPEDTAVYYCNALYPGGLSLSRLDYWGQGTQVTVSS | high polyreactivity
QVQHVESGGGLVQAGGSLRLSGAASGSTFTYNTMGWYRQAPGKERELVAAITTYGGNTYYADSVKGRFTISRDNAKNTVYLQMNSLKPEDSAVYYCAARVIFGDFDYWGQGTQVTVSS | low polyreactivity
QVQLVESGGGLVQAGGSLRLSCAASGISFAIYAMGWYRQAPGKERELVAAISARGGTYYADSVKGRFTISRDNANNTVYSQMNSLKPEDTAVYYCNTDYVSRDDWDYRRYDYWGQGTQVTVSS | low polyreactivity
QVQLVESGGGLVQAGGSLRLICAASGRICISNAMGWYRQAPGKERELVAAITWIGDRTYYADSVKGRFTISRDNAKNTVYLQMISLKPEDTAVYYCAADSYSPYTMDYWRQGTQVTVSS | high polyreactivity
QVQLVESGGGLVQAGGSLRLSCAASGFIFWDYAMGWNRQAPRKERELVAAISDSGGDTYYADSVKGRFTISRDNAKNTVYLQMNSLIPEDTAVYYCAADVVLWVFRGQQYDYWGQGTQVTVSS | low polyreactivity
QVHLVESGGGLVQAGGSLRLRCDASGSIFKPYARGWYRQAPGKERELVAGITAGGASTYYADSVKGRFTISRDNAKNTVYLQMNSLKPEDTAVYYCAAGDYQSGVRYDYWGQGTQVTVSS | low polyreactivity
QVQLVESGGGLVQAGGSLRLSCAASGSTFVRNAMGWYRQAPGKERELVAAISGSGSRTYYADSVKGRFTISRDNAKNTVYLQMNSLKPEDTAVYYCAARITAHEYDYWGQGTQVTVSS | high polyreactivity
QVQLVESGGGLVQAGGSLRLSCAASGSTFRPYAMGWYRQAPGKERELVAAITSTGGSTYYADSVKGRFTISRDNAKNTVYLQMNSLKPEDTAVYYCAAPLVRYAGPYDYWGQGTQVTVSS | low polyreactivity
QVQLVESGGGLVQAGGSLRLSCAASGLTFYTYAMGWYRQAPGKERELVAAISTNGGSTYYADSVKGRFTISRDNAKNTVYLQMNSLKPEDTAVYYCAKEGGTYRIFNYWGQGTQVTVSS | low polyreactivity
QVQLVESGGGLVQAGGSLRLSCAASGGTFTAYAMGWYIQAPGKERELVAAISASGDSTYYADSVKGRFTISRDIAKNTVYLQMNSLKPEDTAVYYCNADWYRTGRRGSDYWGQGTQVTVSS | low polyreactivity
QVQLVESGGGLVQAGGSLRLSCAASGTFGYYTMGWYRQAPGKERELVAAITRSGGSTYYADSVKGRFTISRDNAKNTVYLQMNSLKPEDTAVYYFATELHAWSSWNRYRAYYYWGQGTQVTVSS | high polyreactivity
QVQLVETGGGLVQAGGSLRLSCAHSGSIFASNAMGWYRHAPGKEREFVAAIRYSGGITYYADSVKGRFTISRDNAKNTVYLQMTSLKPEDTAVYYCAAYGWGNRWYSRFDYWGQGTQVTVSS | high polyreactivity
QVQLVESGGGLVQAGGSLRLSCAASGSSFFSNAMGWYRQAPGKERELVASIRSGTRTNYADSVKGRFTISRDNAKNTVYLLMNILKPADTAVYYCAKKWGLDKHRIGHRRLDYWGQGTQVTVSS | low polyreactivity
QVQLVESGGGLVQAGGSLRLSCAASGFTFRRYAMGWYRLAPGKERELVAAISQSGGRTYYADSVKGRFTISRDNAKNTVYLQMNSLKPEDTAVYNFAKDAAGGRHYDYWGQGTQVTVSS | high polyreactivity
QVQLVESGVCIVQAGGSLRLSCAASGFTFRENAMGWYRQAPGKERELVAAISKRGGTTYYADSVKGRFTSSRDYAKNTVILQTNSLKPEDTAVYYCATQYLIQNKYYSWGQGTQVTVSS | high polyreactivity
QVQLVESGGGLVQAGGSLRLSCADSGRTFSPYAMGWYRQAPGKDRELVAAITSGGRTNFADSVKGRFTISRDNAKNTVYLQMNSLKPEDTAVYYCAARSGRYRWTRFDYWGQGTQVTVSS | low polyreactivity
QVQLVESGGGLVQAGSSLRLSCAASGSTYAFYALGWYRQAPGKAMELVDAITSGGTTNYADSVKGRFTISRDNAKNTVYFQMISLKPEDTAVYYCNAYYLGWYRVRAVTGYDYWGQGTQVTLSS | low polyreactivity
QVQLVESGGGLVQAGGSLRLSCATSGRTYVPAMGWYRQAPGKERALVAAITSSGITYYADSVKGRVTISRDNAKNTVYLQMNSLNPEDTAVYYCATSYSNRWGWKYNYWGQGTQVTVSS | high polyreactivity
